The source of these data is patent US10047131B2, “Peptides and combination of peptides for use in immunotherapy against ovarian cancer and other cancers” (immatics biotechnologies GmbH, priority 2015, dated 2018).

In the assay the target is HLA-A*02:01 (Homo sapiens, UniProt P04439, D140Y/D185E/D98H/E176V/E277Q/G131W/G231S/I119V/I121R/I166T/I218V/L300P/L318F/N151K/N90K/P208A/P217A/Q86G/Q94H/R138H/R169H/T345S). The assay is described as follows: MHC binding assay (UV-ligand exchange, ELISA of exchange yield). Conditions: binding to HLA-A*02:01, UV-ligand exchange. In short, it runs like this:
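Peptide–MHC complexes made by UV-ligand exchange, where a UV-cleavable peptide is replaced by the test peptide. Exchange yield measured by ELISA: complexes diluted 100-fold on streptavidin-coated plates, stabilized complexes detected with HRP anti-β2m, TMB read at 450 nm.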
Background: ELISA stands for enzyme-linked immunosorbent assay.
Consider “607 (RLYSGISGLEL; listed as Homo sapiens) [compound 607]”, for which the “Peptide exchange (MHC class I binding score, peptide exchange yield)” value (“Peptide exchange” for short) is recorded as ““+++” (≥50 = +++)”.
The same measure for “608 (SLLSVSHAL; listed as Homo sapiens) [compound 608]”: ““+++” (≥50 = +++)”; for “609 (ALWKQLLEL; listed as Homo sapiens) [compound 609]”: ““+++” (≥50 = +++)”.
To “610 (LLAPTPYIIGV; listed as Homo sapiens) [compound 610]” belongs ““+++” (≥50 = +++)”.
To “611 (YLLDDGTLVV; listed as Homo sapiens) [compound 611]” belongs ““++++” (≥75% = ++++)”; to “612 (YLYNEGLSV; listed as Homo sapiens) [compound 612]”, ““+++” (≥50 = +++)”; to “613 (RLLPPGAVVAV; listed as Homo sapiens) [compound 613]”, ““+++” (≥50 = +++)”.
For the substance “614 (LLLPDQPPYHL; listed as Homo sapiens) [compound 614]”, the “Peptide exchange” value was ““+++” (≥50 = +++)”.
To “615 (VLPPDTDPA; listed as Homo sapiens) [compound 615]” belongs ““++” (≥20% = ++)”.
Take “616 (VLIDEVESL; listed as Homo sapiens) [compound 616]”: the “Peptide exchange” value is reported as ““+++” (≥50 = +++)”.
The same measure for “617 (ALMYESEKVGV; listed as Homo sapiens) [compound 617]”: ““+++” (≥50 = +++)”; for “618 (VLFDSESIGIYV; listed as Homo sapiens) [compound 618]”: ““+++” (≥50 = +++)”.
To “619 (ALQDRVPLA; listed as Homo sapiens) [compound 619]” belongs ““+++” (≥50 = +++)”.
The same measure for “620 (KLLNKIYEA; listed as Homo sapiens) [compound 620]”: ““++++” (≥75% = ++++)”.
For “621 (VLMDRLPSLL; listed as Homo sapiens) [compound 621]”, the “Peptide exchange” value was ““++++” (≥75% = ++++)”.
To “622 (RLLGEEVVRVLQA; listed as Homo sapiens) [compound 622]” belongs ““+++” (≥50 = +++)”.
To “623 (YLVEDIQHI; listed as Homo sapiens) [compound 623]” belongs ““+++” (≥50 = +++)”; to “635 (SLDSTLHAV; listed as Homo sapiens) [compound 635]”, ““+++” (≥50 = +++)”.
